# ± gives the uncertainty stated by the source.
# Test: amyloid nucleation score (Sup35N fusion, yeast selection) (log enrichment); library NNK2; higher = more nucleation; inactive = no reads after selection
# Outline: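 Peptides of 20 random codons, each fused to Sup35N, were expressed in psi-negative yeast. Cells were induced with 100 μM copper sulfate for 24 hours and grown 7 days at 30°C on medium lacking adenine and uracil, and plasmid inserts before and after selection were Illumina-sequenced. Nucleation scores are DiMSum log enrichments of output over input reads, centred on the mode score of non-aggregating sequences, and sequences under 100 input reads were excluded.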
row,Substance,amyloid nucleation score
1,FTDRDLGNLTYDDRFDICNY,-1.75 ± 0.76
2,FTEFPNFNDMSDRVV,-0.92 ± 0.64
3,FTESCQCS,-0.08 ± 0.31
4,FTGRETFQRKRFAAVLSSSV,-0.062 ± 0.65
5,FTIIGAAIKRVVVLTVSPYY,inactive
6,FTNCEYNVDISCVSGLSYSI,inactive
7,FTQTSTVPSKETALALNLMR,0.688 ± 0.57
8,FTRSWFLYTT,3.85 ± 0.095
9,FVCPFVVCYAGIGGRGGYVM,0.173 ± 1.1
10,FVDWVMCIVMYVRLR,-0.87 ± 0.41
11,FVFIYYIVLQHATANHSMQA,4.921 ± 0.044
12,FVGCVNLRLCSSITTAWSSL,8.346 ± 0.046
13,FVGDTIQVVIWLMIIYFWFF,0.959 ± 0.74
14,FVIVFVRRSNTFLAPQKVWG,1.6 ± 0.14
15,FVLNHLAV,-0.548 ± 0.54
16,FVLRIDNC,0.735 ± 0.39
17,FVLSDQK,0.347 ± 0.21
18,FVQSVGNMVSNSGRAGGMPG,0.444 ± 0.31
19,FVSFSSLTKTLWYRRRRMVR,-1.06 ± 1.1
20,FVVGAES,-0.821 ± 0.48
21,FVVIWAMDIDVLWSMGGKID,5.46 ± 0.061
22,FVYNQWSYRLRYLTVAIRD,-0.111 ± 0.56
23,FWGGDLRACSCGQGIEFAGR,3.7 ± 0.14
24,FWGIVKYMWIFSTTYLNVFL,3.22 ± 0.11
25,FWHIEMCENSTYHVSLSTGC,4.394 ± 0.04

row,Substance,amyloid nucleation score
1,FWLLSTCGV,-0.408 ± 0.29
2,FWLVL,-1.47 ± 0.73
3,FWRDLPAQWTRPKAENLVLK,1.23 ± 0.32
4,FWRTP,-0.539 ± 0.5
5,FWYENP,2.14 ± 0.16
6,FWYFPDIIWG,inactive
7,FYASLHNSFFSVLWTDMTFS,-0.487 ± 1.1
8,FYCVNV,-0.383 ± 0.64
9,FYFCF,7.59 ± 0.03
10,FYFEMVTSD,inactive
11,FYFHEACPSRLHHTKSAIGK,-0.839 ± 0.78
12,FYGGDA,0.005 ± 0.39
13,FYHISEVLVVPLRLELSVQL,5.68 ± 0.07
14,FYIYGNSCSPYIML,-0.681 ± 1
15,FYLNKDNLWNSNLGGSAHKC,-2.38 ± 1.1
16,FYLRNSVMCTGPDLGNSTYM,-1.15 ± 1.1
17,FYLSLLYGRSRQIGLLIYFQ,0.974 ± 0.15
18,FYLYFIYGSVCSLSRFNPIR,1.53 ± 0.1
19,FYLYNFMCEVLYMESRRVMS,inactive
20,FYMTYWISPMVIQWVFTDYA,5.571 ± 0.034
21,FYMYAFNYYSFY,2.91 ± 0.086
22,FYSAVYMLFIVMWFGYSLIN,inactive
23,FYSELKLNGMH,-2.04 ± 0.62
24,FYWVLMNYGQLCCWFW,1.79 ± 0.2
25,GAFSYEMTRLKALGFWPL,5.87 ± 0.045

row,Substance,amyloid nucleation score
1,GAIIGIAGVPKGLSNSHSDG,-0.606 ± 1.1
2,GAPSHFCEFCSYSAAKEEYE,inactive
3,GARYTIWECF,inactive
4,GCCWEKSASRSAETYWSGRA,3.06 ± 0.14
5,GCGGAHY,-0.633 ± 0.29
6,GCHICHRWIKSVYRSNHALM,0.291 ± 0.33
7,GCKNR,0.226 ± 0.51
8,GCLLLPKGASHKIDYCGSDV,0.396 ± 0.35
9,GCLTNTSSGMHWS,-0.208 ± 0.24
10,GCRAVRTWEPIGVAGEYFGS,6.232 ± 0.037
11,GCRDMIWVGL,inactive
12,GCRRISFKSHISGVEGTNGG,1.2 ± 0.43
13,GCTSTRRLVYC,-0.622 ± 0.29
14,GCVLAQLSSVGSGVLML,3.14 ± 0.16
15,GCWKD,1.22 ± 0.36
16,GDGHLVILLSHFTPWSLNTG,-0.209 ± 0.48
17,GDKCGFCKNAGPGVKVS,-0.807 ± 0.79
18,GDKYCGLEPYGMGHNHMYAL,0.546 ± 0.56
19,GDMLILSENDQRYCGPVDL,0.107 ± 0.45
20,GDNYIS,0.782 ± 0.41
21,GDPLS,0.162 ± 0.28
22,GDTPGSLYCNLISEGAI,0.119 ± 0.76
23,GDVQLRGMHESPYSPPSQGR,-0.127 ± 0.49
24,GEAFRKDPLRCYMFQGIIEQ,2.1 ± 0.14
25,GEDCWRPPVR,0.559 ± 0.5

row,Substance,amyloid nucleation score
1,GEHSGTHNFKCFVSIIRLSR,0.305 ± 1
2,GEISIGMNLTGEKTSSSGFK,-0.679 ± 1.1
3,GENKDYWGHGYVSLACNRQG,0.492 ± 0.38
4,GETVHREYLAGWMALSSRRR,2.47 ± 0.094
5,GEYGCHHVCLVQGLFGI,-0.164 ± 0.42
6,GFALYFCSEFMVSVCRCKHT,9.613 ± 0.065
7,GFCQASSWM,-0.109 ± 0.76
8,GFDGLRVLLNEHNVIAK,0.771 ± 0.47
9,GFLELCMFKVFFQRCARTIS,-1.04 ± 1.1
10,GFPVWNVYLKSNGHVCDGLG,1.31 ± 0.15
11,GFRNCWKWPHWVLAPMLYNS,0.007 ± 1.1
12,GFRVVCHILALCRYGTCLEI,-0.608 ± 0.35
13,GFSTRYVFTSLYLKYFNRVY,-0.476 ± 0.64
14,GFSWDNESFLCELKMGCLTG,-0.646 ± 0.31
15,GFVLILTAIYVVGCINICAM,5.66 ± 0.064
16,GFVMSYGRGLLS,0.29 ± 0.42
17,GFVPGIMEF,0.808 ± 0.52
18,GFYGLTVSSTEYKWSMIQIR,1.88 ± 0.077
19,GFYIPRRAFS,-1.13 ± 0.25
20,GGISKIFVWEVSIVHYSNIS,inactive
21,GGLCYEQNFYRYKKRRVLEL,3.47 ± 0.12
22,GGNLGRPEKALSRRCCVDYL,inactive
23,GGSKTRLFL,-0.263 ± 1.1
24,GGTLHWLAMDTNMVNMACIG,inactive
25,GGTVEARSKGILSLSGW,inactive

row,Substance,amyloid nucleation score
1,GHAHLCSMYVVSIRLHLSMV,5.59 ± 0.081
2,GHCFISEFLGRRVA,2.36 ± 0.08
3,GHGFFLTTMSSGNNTDRNSG,-1.22 ± 1.1
4,GHNTYGYQRMRGCDV,1.3 ± 0.38
5,GHTPCPHNVVRTHVLSWHGL,7.021 ± 0.042
6,GHVDCWYGRVTALGQAKYE,0.344 ± 0.26
7,GHVQSWGCVVLHEFSSISPE,5.488 ± 0.05
8,GICKALARYYFSIYDWQVTE,0.049 ± 1.1
9,GICTWNFV,inactive
10,GIGSQMWFT,3.41 ± 0.053
11,GIMGDGGGHALWTEEELKVR,1.01 ± 0.23
12,GINVCFKHTMV,3.28 ± 0.062
13,GIPCGGMFCRIGS,0.524 ± 0.81
14,GIRAVVL,0.374 ± 0.18
15,GIRLGSNDQSVYSRPNV,1.46 ± 0.35
16,GKCMV,4.02 ± 0.095
17,GKDGKLTSMAHSYHDYVMRR,0.129 ± 0.26
18,GKEIRNNITMCGYLMQNICD,2.85 ± 0.17
19,GKPTFFMG,0.6 ± 0.74
20,GKVRRIIWLSCKNG,1.05 ± 0.54
21,GLESFGDYSVKIPLGDLFGP,-0.025 ± 0.3
22,GLGYLMINYMRISWWAMYCA,0.235 ± 0.61
23,GLISIAVSRRVYLFCLVAPV,-0.541 ± 0.79
24,GLKNRVWL,1.05 ± 0.26
25,GLLGKTASTYAVRVWGIGVG,1.03 ± 0.2

row,Substance,amyloid nucleation score
1,GLLGWMGAYGANPCYPTTLF,0.515 ± 0.8
2,GLMTYFSSVESGEHTDRNLS,-0.732 ± 0.33
3,GLNISPRMYCF,0.002 ± 0.28
4,GLPYVSMINLHASYTERMVW,-0.687 ± 0.64
5,GLRLFKMKDFC,2.14 ± 0.21
6,GLRWNKFYKCTEVCMCRGSS,2.58 ± 0.15
7,GLSAKNH,0.279 ± 0.39
8,GLSAMDDRMVPRIIYWIRLW,-0.217 ± 0.36
9,GLWLGWNLYVNKFV,0.385 ± 0.33
10,GLWVV,-1.02 ± 1.1
11,GLYRGTLVYKTYVLGNNKPL,-1.33 ± 1.1
12,GMCLTGSTSVRTNNSPHVSR,0.803 ± 0.32
13,GMGIHFKASGRGPLIVGERD,0.75 ± 0.44
14,GMIRLLGLFIKKRWRSNTCL,-0.238 ± 0.5
15,GMIVLRCSRSCWFVQTKADG,1.27 ± 0.48
16,GMLMIVGARSRDVPYYGRCD,0.004 ± 1.1
17,GMNFHRGLMLNGVCIFSLLW,0.491 ± 0.38
18,GMNRL,-0.869 ± 0.55
19,GMTVNYRRMVQNQRMFGPGI,-0.42 ± 0.37
20,GMVNIYDLCYMLLY,-1.21 ± 0.31
21,GNHSAVAPS,-0.677 ± 0.38
22,GNKCLSWVES,-0.12 ± 0.23
23,GNLSNSQTIWFRSNTAISLN,1.98 ± 0.14
24,GNNFIF,inactive
25,GNNRAY,-0.117 ± 0.74

row,Substance,amyloid nucleation score
1,GNPTESG,0.148 ± 0.29
2,GNRLWFGTIVRHLIYEVYVR,0.665 ± 0.36
3,GNRVYGDYCFYTTMGWASW,-0.379 ± 0.55
4,GNYFPYFQVWSISRFLMSIS,inactive
5,GNYVSTFFKCRILYRMNLMF,-0.121 ± 1.1
6,GPCGVVVNFHRSCFCRFEFL,7.61 ± 0.082
7,GPCMMEGLIYREMSAGYTTV,0.416 ± 0.49
8,GPLFHTTRLRDNHM,3.11 ± 0.11
9,GPTNVIRTISRDTTIV,-0.646 ± 0.39
10,GPTRSYRLAASGAGEGCKTW,2.09 ± 0.1
11,GQTIL,inactive
12,GQYLVSKFGIEHTA,0.307 ± 0.17
13,GRAYHESLSGDFVLFSSRRC,-0.815 ± 0.63
14,GRCTRERW,0.123 ± 0.32
15,GRESKVWIPFTGALF,-1.04 ± 1.1
16,GRFDSRAFTDDMTKIPMYYL,0.045 ± 0.36
17,GRLYHGVVTCSGRNGINRGS,2.92 ± 0.19
18,GRNVMTKAPYCTCWANVLHS,6.67 ± 0.075
19,GRSEVRFMTMLMLCKKCACL,5.547 ± 0.034
20,GRSGVLLQRGGFVKNSRCEK,0.026 ± 1.1
21,GRYNVDFKSIMRYIECGKTA,-0.27 ± 1.1
22,GSAGNYRRY,0.167 ± 0.56
23,GSARCNTSFCCQQVYFYGCG,8.486 ± 0.064
24,GSCVIM,1.36 ± 0.67
25,GSFENSTRTYVSIIRR,4.73 ± 0.045
